The results in this text go back to patent US7514215B2, “Sulfotransferase SULT2A1 sequence variants” (Mayo Foundation for Medical Education and Research, priority 2001, dated 2009).

This data set has as its system SULT2A1. Briefly: SULT2A1 enzyme activity assay: sulfate conjugation of DHEA with 35S-PAPS, COS-1 cytosol preparations of recombinant allozymes. Type of data set: biochemical, human. The conditions noted are these: for Enzyme Activity (%): percentage of WT SULT2A1 enzyme activity, 5 μM DHEA, 0.4 μM 35S-PAPS, COS-1 cytosol, corrected for transfection efficiency; for Enzyme activity: immunoreactive protein: ratio of enzymatic activity to immunoreactive protein; for decrease in enzyme activity: reduction relative to wild type. On the procedure:
Activity of SULT2A1 polypeptides can be altered relative to the reference SULT2A1 polypeptide. […] Other allozymes can have increased activity relative to the reference SULT2A1 polypeptide. Activity of SULT2A1 polypeptides can be assessed in vitro using a sulfate acceptor substrate such as DHEA and a donor sulfate molecule such as PAPS. In general, recombinant SULT2A1 polypeptides can be incubated at 37° C. with 0.4 μM ^35S-PAPS and 5 μM DHEA in a potassium phosphate buffer (5 mM, pH 6.5). Reactions can be stopped by precipitating PAPS and SULT2A1 polypeptide (e.g., with barium hydroxide, barium acetate, and zinc sulfate). After centrifugation of the reaction, radioactivity in the supernatant is assessed. SULT2A1 activity is expressed as nmoles of sulfate conjugated product formed per hour of incubation. See, Campbell, N. R. C. et al., Biochem. Pharmacol., 36:1435-1446 (1987).
COS-1 cell expression: Five different SULT2A1 expression constructs were made using the pCR3.1 expression vector. Four of the constructs were designed to express SULT2A1 allozymes, while the remaining construct was designed to express a wild type SULT2A1 polypeptide. All SULT2A1 cDNA sequences containing SULT2A1 nucleotide sequence variants used to create the expression constructs were created by site directed mutagenesis using the method described by Ho et al., Gene 77(1):51-9 (1989). Each SULT2A1 cDNA was amplified by PCR and subcloned into the eukaryotic expression vector pCR3.1 (Promega, Madison, Wis.). After subcloning, all inserts were sequenced to assure that no spurious nucleotide point mutations had been introduced during the PCR amplifications. […] As a control, a transfection was also performed with “empty” pCR3.1, i.e., vector lacking an insert, to make it possible to correct for endogenous COS-1 cell SULT activity. The control plasmid pSV-β-galactosidase (Promega) was cotransfected with each SULT2A1 construct to make it possible to correct for transfection efficiency. Two independent transfections, each consisting of three separate plates, were performed with each of the expression constructs.
After 48 hours in culture, the transfected cells were harvested and high speed supernatant (HSS) cytosol preparations were prepared as described by Wood, T. C. et al., Biochem. Biophys. Res. Commun., 198:1119-1127 (1994). Aliquots of these cytosol preparations were stored at −80° C. prior to assay.
Enzyme Assays: β-galactosidase activity in each of the COS-1 HSS preparations was measured with the β-galactosidase Enzyme Assay System (Promega, Madison, Wis.). These HSS preparations of recombinant SULT2A1 allozymes were used for the activity studies without any further purification. The protein concentration of each recombinant protein preparation was determined by the dye-binding method of Bradford with bovine serum albumin (BSA) as a standard.
SULT2A1 enzyme activity was measured with an assay that involves sulfate conjugation of a sulfate acceptor substrate, DHEA, in the presence of the sulfate donor 3′-phosphoadenosine-5′-phosphosulfate (PAPS). See, Campbell, N. R. C. et al., Biochem. Pharmacol., 36:1435-1446 (1987). Briefly, 0.4 μM ^35S-PAPS and a HSS preparation were reacted with 5 μM DHEA in 5 mM potassium phosphate buffer at pH 6.5. […] Cytosol from COS-1 cells that had been transfected with empty pCR3.1 was used to correct for endogenous SULT activity. Because SULTs display profound substrate inhibition, DHEA concentrations that ranged from 100 pM to 1 mM were tested with each recombinant allozyme to ensure that the assays were performed at DHEA concentrations that yielded maximal activity for that allozyme. Enzyme activity was expressed as nanomoles (nmoles) of sulfate conjugated product formed per hour of incubation. Apparent Km values for PAPS were determined in the presence of 5 μM DHEA with six PAPS concentrations that varied from 0.0625 μM to 2 μM. […]

[1] abbreviates: apparent Km for DHEA, read-out: DHEA Km.
Setting [2] is: apparent Km for PAPS in the presence of 5 μM DHEA, read-out: PAPS Km.

The Km is the substrate concentration at which the rate is half of its maximum.

Where two headings read alike, the source gives them in different places.

B1: Ala63Pro: SULT2A1 allozyme having a proline at amino acid residue 63 in place of alanine (protein, UniProt Q06520 1-285, looked up, variant A63P)
Sulfotransferase 2A1: MSDDFLWFEGIAFPTMGFRSETLRKVRDEFVIRDEDVIILTYPKSGTNWLAEILCLMHSKGDPKWIQSVPIWERSPWVESEIGYTALSETESPRLFSSHLPIQLFPKSFFSSKAKVIYLMRNPRDVLVSGYFFWKNMKFIKKPKSWEEYFEWFCQGTVLYGSWFDHIHGWMPMREEKNFLLLSYEELKQDTGRTIEKICQFLGKTLEPEELNLILKNSSFQSMKENKMSNYSLLSVDYVVDKAQLLRKGVSGDWKNHFTVAQAEDFDKLFQEKMADLPRELFPWE
In the case of B1, the “activity relative to the reference SULT2A1 polypeptide (in words)” value was “reduced activity”, the “Enzyme Activity (%)” value came out at 57%, the “Enzyme activity: immunoreactive protein” value is 2.1 and the “decrease in enzyme activity” value is recorded as 43%. Besides, the Michaelis-Menten constant (Km) under setting [1] is 210 ± 10 nM. Also, the Km under setting [2] came to 8.2 ± 1.32 nM.

B2: 63Pro/261Thr: SULT2A1 polypeptide with a proline at position 63 and a threonine at position 261 (double variant) (protein, UniProt Q06520 1-285, looked up, variant A63P A261T)
Sulfotransferase 2A1: MSDDFLWFEGIAFPTMGFRSETLRKVRDEFVIRDEDVIILTYPKSGTNWLAEILCLMHSKGDPKWIQSVPIWERSPWVESEIGYTALSETESPRLFSSHLPIQLFPKSFFSSKAKVIYLMRNPRDVLVSGYFFWKNMKFIKKPKSWEEYFEWFCQGTVLYGSWFDHIHGWMPMREEKNFLLLSYEELKQDTGRTIEKICQFLGKTLEPEELNLILKNSSFQSMKENKMSNYSLLSVDYVVDKAQLLRKGVSGDWKNHFTVTQAEDFDKLFQEKMADLPRELFPWE
For the molecule B2, the “activity relative to the reference SULT2A1 polypeptide (in words)” value is recorded as “reduced activity”, the “Enzyme Activity (%)” value is recorded as 42% and the “Enzyme activity: immunoreactive protein” value was 1.6. The Michaelis-Menten constant (Km) under setting [1] was found to be 290 ± 12 nM. The Km under setting [2] worked out at 11.4 ± 0.3 nM.

B3: Lys227Glu: SULT2A1 allozyme having a glutamate at amino acid residue 227 in place of a lysine (protein, UniProt Q06520 1-285, looked up, variant K227E)
Sulfotransferase 2A1: MSDDFLWFEGIAFPTMGFRSETLRKVRDEFVIRDEDVIILTYPKSGTNWLAEILCLMHSKGDAKWIQSVPIWERSPWVESEIGYTALSETESPRLFSSHLPIQLFPKSFFSSKAKVIYLMRNPRDVLVSGYFFWKNMKFIKKPKSWEEYFEWFCQGTVLYGSWFDHIHGWMPMREEKNFLLLSYEELKQDTGRTIEKICQFLGKTLEPEELNLILKNSSFQSMKENEMSNYSLLSVDYVVDKAQLLRKGVSGDWKNHFTVAQAEDFDKLFQEKMADLPRELFPWE
B3: the “activity relative to the reference SULT2A1 polypeptide (in words)” value was “reduced activity”, the “Enzyme Activity (%)” value is 15% and the “Enzyme activity: immunoreactive protein” value was determined as 7.5. Under setting [1], the Michaelis-Menten constant (Km) was determined as 905 ± 53 nM. Under setting [2], the Km is 10.2 ± 0.96 nM.

B4: Ala261Thr: SULT2A1 allozyme having a threonine at amino acid 261 in place of an alanine (protein)
chain: MSDDFLWFEGIAFPTMGFRSETLRKVRDEFVIRDEDVIILTYPKSGTNWLAEILCLMHSKGDAKWIQSVPIWERSPWVESEIGYTALSESESPRLFSSHLPIQLFPKSFFSSKAKVIYLMRNPRDVLVSGYFFWKNMKFIKKPKSWEEYFEWFCQGTVLYGSWFDHIHGWMPMREEKNFLLLSYEELKQDTGRTIEKICQFLGKTLEPEELNLILKNSSFQSMKENKMSNYSLLSVDYVVDKAQLLRKGVSGDWKNHFTVTQAEDFDKLFQEKMADLPRELFPWE
For B4, the “activity relative to the reference SULT2A1 polypeptide (in words)” value is on record as “comparable to the reference SULT2A1 polypeptide”, the “Enzyme activity: immunoreactive protein” value was found to be 1.2 and the “decrease in enzyme activity” value turned out to be 85%. Also, under setting [1], the Michaelis constant (Km) amounted to 245 ± 12 nM. Further, the Km under setting [2] worked out at 22.7 ± 0.62 nM.

B5: WT: recombinant wild type (reference) human SULT2A1 polypeptide, SEQ ID NO:3, expressed in COS-1 cells (protein, listed as Homo Sapiens)
chain: MSDDFLWFEGIAFPTMGFRSETLRKVRDEFVIRDEDVIILTYPKSGTNWLAEILCLMHSKGDAKWIQSVPIWERSPWVESEIGYTALSESESPRLFSSHLPIQLFPKSFFSSKAKVIYLMRNPRDVLVSGYFFWKNMKFIKKPKSWEEYFEWFCQGTVLYGSWFDHIHGWMPMREEKNFLLLSYEELKQDTGRTIEKICQFLGKTLEPEELNLILKNSSFQSMKENKMSNYSLLSVDYVVDKAQLLRKGVSGDWKNHFTVAQAEDFDKLFQEKMADLPRELFPWE
As to B5, the “Enzyme Activity (%)” value came to 100% and the “Enzyme activity: immunoreactive protein” value was 1.0. Further, the Km under setting [1] is 247 ± 71 nM. Moreover, the Km under setting [2] is 21.8 ± 0.86 nM.
